Here are results for 1 protein from patent publication US20030017991.

In the series the target is APP695 with C-terminal dilysine and the mutation KM-DA594-597 to SYEA594-597, expressed in HEK 293 derivative cells, P05067.
APP695 with C-terminal dilysine and the mutation KM-DA594-597 to SYEA594-597, expressed in HEK 293 derivative cells, P05067, sequence (P05067 whole entry, looked up, change not shown, tested part not stated): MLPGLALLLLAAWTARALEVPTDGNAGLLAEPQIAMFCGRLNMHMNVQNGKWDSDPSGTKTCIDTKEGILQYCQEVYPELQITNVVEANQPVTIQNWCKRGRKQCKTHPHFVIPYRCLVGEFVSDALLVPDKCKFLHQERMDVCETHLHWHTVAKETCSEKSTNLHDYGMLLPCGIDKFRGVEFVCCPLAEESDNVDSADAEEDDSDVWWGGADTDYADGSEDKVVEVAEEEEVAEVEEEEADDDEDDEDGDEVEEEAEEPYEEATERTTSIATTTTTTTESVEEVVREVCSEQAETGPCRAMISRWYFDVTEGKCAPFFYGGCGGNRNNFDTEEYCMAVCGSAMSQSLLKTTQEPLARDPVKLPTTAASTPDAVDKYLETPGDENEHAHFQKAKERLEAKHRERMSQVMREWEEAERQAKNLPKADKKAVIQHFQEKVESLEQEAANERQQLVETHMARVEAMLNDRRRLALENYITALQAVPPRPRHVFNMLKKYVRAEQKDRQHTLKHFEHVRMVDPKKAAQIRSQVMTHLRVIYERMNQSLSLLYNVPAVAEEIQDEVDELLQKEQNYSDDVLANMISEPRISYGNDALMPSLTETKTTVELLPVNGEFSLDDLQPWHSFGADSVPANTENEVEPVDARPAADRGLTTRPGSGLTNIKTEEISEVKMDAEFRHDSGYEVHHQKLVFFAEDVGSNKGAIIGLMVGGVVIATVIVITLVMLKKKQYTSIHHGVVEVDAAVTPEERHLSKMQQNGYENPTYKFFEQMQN

B1: Hu-Asp2 expressed in a stable HEK-293 derivative cell line (higher levels of Hu-Asp2) (protein)
chain: ETDEEPEEPGRRGSFVEMVDNLRGKSGQGYYVEMTVGSPPQTLNILVDTGSSNFAVGAAPHPFLHRYYQRQLSSTYRDLRKGVYVPYTQGKWEGELGTDLVSIPHGPNVTVRANIAAITESDKFFINGSNWEGILGLAYAEIARPDDSLEPFFDSLVKQTHVPNLFSLHLCGAGFPLNQSEVLASVGGSMIIGGIDHSLYTGSLWYTPIRREWYYEVIIVRVEINGQDLKMDCKEYNYDKSIVDSGTTNLRLPKKVFEAAVKSIKAASSTEKFPDGFWLGEQLVCWQAGTTPWNIFPVISLYLMGEVTNQSFRITILPQQYLRPVEDVATSQDDCYKFAISQSSTGTVMGAVIMEGFYVVFDRARKRIGFAVSACHVHDEFRTAAVEGPFVTLDMEDCGYNIPQTDESTLMTIAYVMAAICALFMLPLCLMVCQWRCLRCLRQQHDDFADDISLLK
As for B1, the “production of the β-secretase cleavage product CTF-99 (Western blot with antibody C8)” value is “both mutant APP variants were proficiently cleaved by Asp2”.
